Measurements published in FireProtDB (doi:10.1021/bi048926x).
Where “and” joins values, the source holds several entries; their conditions need not be identical. Equal values may be shown once.

Conditions: Pseudomonas aeruginosa (strain ATCC 15692 / DSM 22644 / CIP 104116 / JCM 14847 / LMG 12228 / 1C / PRS 101 / PAO1), pH 7, Thermal, reversible: No, whole UniProt chain shown

B1: Azurin wild type, P00282 (protein)
chain: MLRKLAAVSLLSLLSAPLLAAECSVDIQGNDQMQFNTNAITVDKSCKQFTVNLSHPGNLPKNVMGHNWVLSTAADMQGVVTDGMASGLDKDYLKPDDSRVIAHTKLIGSGEKDSVTFDVSKLKEGEQYMFFCTFPGHSALMKGTLTLK
In the case of B1, the Tm (Absorbance, Phosphate 10 mM) is reported as 78 °C and the “unfolding enthalpy (calorimetric)” value (DSC, Potassium phosphate 100 mM) is reported as 141 kcal/mol and 130 kcal/mol and 136 kcal/mol.
